# Target: actin filaments (UniProt P68133)
# Experiment: pelleting assay
binder,measurement,value
End4p TLD (protein) LLNAPGENIEELVDNQLAETAQAIQQAILRLQNIAAKPKDDSLSPSELQVHDSLLSASIAITEAIARLIKAATASQAEIVAQGRGSSSRGAFYKKHNRWTEGLISAAKAVARATTTLIETADGVVNGTSSFEHLIVACNGVSAATAQLVAASRVKANFASKVQDHLEDAAKAVTEACKALVRQVESVALKAKEVQHEDFSSLGVHEYRRKEIEQQVQILKLENDLVAARRRLFDMRKTSYHVA,Kd,~3000 nM

# Reference: PMC4131202 (2013)
